The nanobody polyreactivity screen of Harvey et al. (2022)

Experiment: yeast display, Sf9 membrane polyspecificity reagent, FACS + sequencing; frameworks hold sequencing errors
Method in brief: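 A nanobody's polyreactivity label depends on the gate it was sorted from. Yeast display cells were stained with 10% biotinylated, detergent-solubilized Sf9 membrane reagent for 1 hour at 4 °C, enriched on streptavidin microbeads and sorted by FACS. The low and high (top ~1%) gates were set on anti-HA fluorescence for expression and streptavidin fluorescence for reagent binding.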

Sequence	polyreactivity (PSR sort gate)
QVQLVESGGGLVQAGGSLRLICAASGIIFVSNAMGWYRQAPGKERELVATINWSDDSTYYADSVKGRFTISRDNAKYTVYLQMNSLKPEDTAVYYCNARPLRYVESDYWGQGTQVTVSS	low polyreactivity
QVQLVESGGGLVQAGGSLRLICAASGIILVYYDMGWYRQAPGKEMELVDTISRGGSTNYADSVMGRFTISRDNAKNTVYLQMISLKPEDTAVNYCAAGSYSIWVHLVRYYYWGQGTQVTVSS	high polyreactivity
QVQLVESGGGLVQAGGSLRLICAASGIIYYYYAMGWYRQAPGKERELVAAINFSVGGTYYADSVKGSFTNSRDNAKNSVYLQMNSQKPEDTAVYYCAKDIVIPATYVEYDYWGQGTQVTVSS	low polyreactivity
QVQLVESGGGLVQAGGSLRLICAASGILVYNAMGWYRQAPGKERELVAAISARGGRKYYADSVKGRFTISRDNAKNTVYLQMYSLKTEDTAVYYCATLETSGVNYWGQGTQVTVSS	high polyreactivity
QVQLVESGGGLVQAGGSLRLICAASGISFDGNPMGWYRQAPGKERELVASITSDSSTNYADSVKGRFTISRDNAKNTVYLQMKSLKPEDTAVYYCAADHWIAPRRDYWGQGTQVTVSS	low polyreactivity
QVQLVESGGGLVQAGGSLRLICAASGITFDGYAMGWYRQAPGKERELVAAISWSGGRTYYADSVKGRFTISRDNAKNTVYLQMNSLKPEDTAVYYCAVYRRGVVYLLTSGVDYWGQGTQVTVSS	high polyreactivity
QVQLVESGGGLVQAGGSLRLICAASGITFRRYTMGWYREAPGKERELVATISLSDGNTYYADSVKGRFTISRDNAKYTLYLQMNSLKPEDTAVYYCNARHTWHQTYDYWGQGTIVTVSS	low polyreactivity
QVQLVESGGGLVQAGGSLRLICAASGITFSLYVKGRYSQAPGNERELVAAISTSGGSTYYADSVKGRFSLSRDNPKKSVYFQMNSLKPEDTSVYYCAAVYVLSWYVQTYDYWGQGTQVTVSS	low polyreactivity
QVQLVESGGGLVQAGGSLRLICAASGITFSTYTMGWYRQAPRKEREFVAAISSRGGSTYYADSVKGRFTISRDNAKNTAYLQMNRLIPEVTAVYYCAAALVAPFDYWVQGTQVTVSS	high polyreactivity
QVQLVESGGGLVQAGGSLRLICAASGITLPIYAMGWYRQAPGKERELVATISQRDARTYYADSVKGRFTISRDNAKNTVYLQMNSLKPEDTAVYYCARGYKKSVQRFEYWGQGTQVTVSS	high polyreactivity
QVQLVESGGGLVQAGGSLRLICAASGLIFGPYAMGWYRQAPGKEREFVAAITRSDGSTYYADSVKGRFTISRDNAKNTVFLQMNSLNPEDTAVYYCNADAGYVWFGGAYYWPYDYWRQGTQVTVSS	low polyreactivity
QVQLVESGGGLVQAGGSLRLICAASGLTFAGYAMGWYRQAPGKERELVAAITYSTGRTYYADSVKGRFTISRDNAKNTVYLQMNSLKPEDTAVYYCAALLRGQDRTMDYWGQGTQVTVSS	high polyreactivity
QVQLVESGGGLVQAGGSLRLICAASGLTFFRNAMGWYRQAPGKEREFVAGITSTDGSTYYADSVKGRFTISRDNAKNTVYLQMNSLKPEDTAVYYCAAAYRVRGRTYDSWGQGTQVTVSS	high polyreactivity
QVQLVESGGGLVQAGGSLRLICAASGLTFGSNGMGWYRQAPGKERELVAAISRGGSTSYADSVKGRFTISRDNAKNTVYLQMNSLKPEDTAVYYCNASPWGPSYFRTPYYGVRRYNYWGQGTQVTVSS	high polyreactivity
QVQLVESGGGLVQAGGSLRLICAASGLTFISYAMGWYRQAPGKERELVAAITYSGGSTYYADSVKGRFTISRDNAKNTVYLQMNSLKPEDTAVYYCAVEIPGLLWYLPTYDYWGQGTQVTVSS	low polyreactivity
QVQLVESGGGLVQAGGSLRLICAASGLTFRPNSMGWFRQAPGKERELVAAITWLGGRTYYADSVKGRFTISRDNSKNTVYLQMNSLKPEDTEVYYCSADSPYRGRQCPLNYGGDYWGQGTQVTVSS	high polyreactivity
